Source: patent US20260234267A1 (KAIGENE, published 2026)

B1: VH2/VL6 humanized anti-CD11b antibody (antibody, human IgG4 S228P, kappa, V domains shown)
VH: QVQLVQSGAEVKKPGSSVKVSCKASGYAFINYLIEWVKQAPGQGLEWIGVINPGSGGTNYNEKFKGRATLTADKSTSTAYMELSSLRSEDTAVYFCARGDDYDDYTMDYWGQGTLVTVSS
VL: EIVLTQSPATLSLSPGERATLSCRASQSISNNLHWYQQKPGQAPRLLIKYASQSESGIPSRFSGSGSGTDFTLTISSLEPEDFGMYFCQQSNSWPLTFGQGTKLEIKR
notes: Lead candidate; IgG4 with S241P and L248E; also called VH2 with VL6
B2: VH4/VL2 humanized anti-CD11b antibody (antibody, V domains shown)
VH: QVQLVQSGAEVKKPGSSVKVSCKASGYAFINYLIEWVKQAPGQGLEWIGVINPGSGGTNYNEKFKGRVTITADKSTSTAYMELSSLRSEDTAVYYCARGDDYDDYTMDYWGQGTLVTVSS
VL: DIVLTQSPATLSLSPGERATLSCRASQSISNNLHWYQQKPGQAPRLLIKYASQSMSGIPSRFSGSGSGTDFTLTISSLEPEDFGMYFCQQSNSWPLTFGQGTKLEIK
notes: Member of the group 'the variants with VH4 or VH5'; One of the 30 humanized variants
B3: VH4/VL3 humanized anti-CD11b antibody (antibody, V domains shown)
VH: QVQLVQSGAEVKKPGSSVKVSCKASGYAFINYLIEWVKQAPGQGLEWIGVINPGSGGTNYNEKFKGRVTITADKSTSTAYMELSSLRSEDTAVYYCARGDDYDDYTMDYWGQGTLVTVSS
VL: EIVLTQSPATLSLSPGERATLSCRASQSISNNLHWYQQKPGQAPRLLIKYASQSMSGIPSRFSGSGSGTDFTLTISSLEPEDFGMYFCQQSNSWPLTFGQGTKLEIK
notes: as for B2
B4: VH4/VL6 humanized anti-CD11b antibody (antibody, human IgG4 S228P, kappa, V domains shown)
VH: QVQLVQSGAEVKKPGSSVKVSCKASGYAFINYLIEWVKQAPGQGLEWIGVINPGSGGTNYNEKFKGRVTITADKSTSTAYMELSSLRSEDTAVYYCARGDDYDDYTMDYWGQGTLVTVSS
VL: EIVLTQSPATLSLSPGERATLSCRASQSISNNLHWYQQKPGQAPRLLIKYASQSESGIPSRFSGSGSGTDFTLTISSLEPEDFGMYFCQQSNSWPLTFGQGTKLEIKR
notes: Lead candidate; IgG4 with S241P and L248E; also called VH4 with VL6
B5: VH2/VL2 humanized anti-CD11b antibody (antibody, human IgG4 S228P, kappa)
heavy: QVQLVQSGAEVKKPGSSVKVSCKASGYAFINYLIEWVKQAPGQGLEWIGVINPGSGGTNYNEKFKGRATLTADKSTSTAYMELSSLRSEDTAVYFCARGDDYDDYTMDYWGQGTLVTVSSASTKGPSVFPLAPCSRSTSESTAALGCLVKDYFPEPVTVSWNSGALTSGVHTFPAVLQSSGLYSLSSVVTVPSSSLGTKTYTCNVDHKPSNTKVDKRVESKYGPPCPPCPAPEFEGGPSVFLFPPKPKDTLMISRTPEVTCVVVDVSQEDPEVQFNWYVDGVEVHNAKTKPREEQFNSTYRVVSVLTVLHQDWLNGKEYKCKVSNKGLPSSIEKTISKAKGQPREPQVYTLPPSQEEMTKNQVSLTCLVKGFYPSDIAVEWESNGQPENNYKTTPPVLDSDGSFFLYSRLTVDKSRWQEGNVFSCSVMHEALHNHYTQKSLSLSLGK
light: DIVLTQSPATLSLSPGERATLSCRASQSISNNLHWYQQKPGQAPRLLIKYASQSMSGIPSRFSGSGSGTDFTLTISSLEPEDFGMYFCQQSNSWPLTFGQGTKLEIKRTVAAPSVFIFPPSDEQLKSGTASVVCLLNNFYPREAKVQWKVDNALQSGNSQESVTEQDSKDSTYSLSSTLTLSKADYEKHKVYACEVTHQGLSSPVTKSFNRGEC
notes: Lead candidate; IgG4 with S241P and L248E; also called VH2 with VL2
B6: VH1/VL6 humanized anti-CD11b antibody (antibody, human IgG4 S228P, kappa, V domains shown)
VH: QVQLQQSGAELKRPGSSVKVSCKASGYAFINYLIEWVKQAPGQGLEWIGVINPGSGGTNYNEKFKGKATLTADKSSSTAYMELSSLRSDDSAVYFCARGDDYDDYTMDYWGQGTSVTVSS
VL: EIVLTQSPATLSLSPGERATLSCRASQSISNNLHWYQQKPGQAPRLLIKYASQSESGIPSRFSGSGSGTDFTLTISSLEPEDFGMYFCQQSNSWPLTFGQGTKLEIKR
notes: Lead candidate; IgG4 with S241P and L248E; also called VH1 with VL6
B7: VH2/VL3 humanized anti-CD11b antibody (antibody, human IgG4 S228P, kappa)
heavy: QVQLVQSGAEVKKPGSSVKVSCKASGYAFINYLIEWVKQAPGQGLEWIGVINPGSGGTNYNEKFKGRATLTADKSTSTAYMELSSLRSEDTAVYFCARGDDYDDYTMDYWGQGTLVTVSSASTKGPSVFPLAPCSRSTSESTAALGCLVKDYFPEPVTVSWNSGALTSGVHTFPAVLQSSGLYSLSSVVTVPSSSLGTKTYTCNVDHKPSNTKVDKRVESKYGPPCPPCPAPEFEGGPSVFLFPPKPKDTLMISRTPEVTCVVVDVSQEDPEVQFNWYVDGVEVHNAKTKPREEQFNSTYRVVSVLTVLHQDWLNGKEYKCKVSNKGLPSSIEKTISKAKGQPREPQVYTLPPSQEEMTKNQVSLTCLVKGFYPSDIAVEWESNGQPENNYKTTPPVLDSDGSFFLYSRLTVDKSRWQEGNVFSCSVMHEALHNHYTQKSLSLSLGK
light: EIVLTQSPATLSLSPGERATLSCRASQSISNNLHWYQQKPGQAPRLLIKYASQSMSGIPSRFSGSGSGTDFTLTISSLEPEDFGMYFCQQSNSWPLTFGQGTKLEIKRTVAAPSVFIFPPSDEQLKSGTASVVCLLNNFYPREAKVQWKVDNALQSGNSQESVTEQDSKDSTYSLSSTLTLSKADYEKHKVYACEVTHQGLSSPVTKSFNRGEC
notes: Lead candidate; IgG4 with S241P and L248E; also called VH2 with VL3

The binders below were run against Mac-1 (CD11b/CD18 integrin) on polymorphonuclear leukocytes (PMNs) of healthy human donors (human, UniProt P11215 17-1152; P05107 23-769) (assay: flow cytometry, 30 µg/mL antibody on untreated versus PMA-treated human WBCs, % CD11b+ cells of live PMNs).
Method: FIG. 3 is a chart showing the results of a flow cytometry analysis of activated polymorphonuclear leukocytes (“PMNs”) stained using 30 humanized anti-CD11b constructs prepared according to the present disclosure. The percentages of CD11b+ cells in live PMN were calculated by a gating based on a control, which is the cells stained with human IgG4 isotype, and are presented as means S.E.M. from four independent experiments. The white bars are CD11b+ cells in untreated white blood cells (WBCs), while the black bars are CD11b+ cells in PMA-treated WBCs.
The baseline CBRM1/5 antibody can distinguish between non-activated (resting) and activated form of Mac-1. In order to validate that humanized variants retained this characteristic, WBCs were isolated from 4 healthy human donors and activated in the absence or presence of phorbol 12-myristate-13-acetate (PMA). The cells were then stained with 30 μg/mL of each of the 30 humanized variants along with control antibody (human IgG4 isotype) and analyzed using flow cytometry. The percentages of CD11b+ cells in live PMNs were calculated by a gating based on a control, which is the cells stained with human IgG4 isotype, and are presented as means S.E.M. from four independent experiments. Variants containing VL5 lost a binding to Mac-1 in polymorphonuclear leukocytes (PMNs) regardless of the pairings with any VH variant (FIGS. 3-4). […] However, VH1/VL6 and all variants with VH2 preserved the characteristic of CBRM1/5 that can distinguish between non-activated (resting) and activated form of Mac-1, while the variants with VH4 or VH5 were likely to lose the specificity of the parental antibody, CBRM1/5 (FIGS. 3-4).
B1: binds. B2: binds. B3: binds. B4: binds. B5: binds. B6: binds. B7: binds.
